Laboratory results as given in patent publication US20230158141A1 (YAFEI SHANGHAI BIOLOG MEDICINE SCIENCE AND TECHNOLOGY, published 2023).

T1: IL-10R2-Fc/His (UniProt Q08334 20-220, limits assumed)
T1 sequence (looked up): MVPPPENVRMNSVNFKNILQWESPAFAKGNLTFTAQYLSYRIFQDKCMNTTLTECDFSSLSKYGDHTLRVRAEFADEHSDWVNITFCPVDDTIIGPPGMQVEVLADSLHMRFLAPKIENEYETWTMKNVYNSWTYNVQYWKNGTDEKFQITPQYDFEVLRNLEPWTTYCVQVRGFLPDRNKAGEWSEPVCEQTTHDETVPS

T2: IL-10R1-Fc (UniProt Q13651 22-235, limits assumed)
T2 sequence (looked up): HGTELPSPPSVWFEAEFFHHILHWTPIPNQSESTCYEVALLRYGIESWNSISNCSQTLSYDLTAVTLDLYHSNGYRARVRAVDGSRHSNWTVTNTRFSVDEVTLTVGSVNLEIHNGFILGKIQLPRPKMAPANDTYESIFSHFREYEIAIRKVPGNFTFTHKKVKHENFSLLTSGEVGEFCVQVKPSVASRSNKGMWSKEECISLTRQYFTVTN


target: T1, IL-10R2-Fc/His; assay: ELISA, IL-10R2-Fc/His coated

Binder	Binding recovery (>60%) [%]	Decreased fold of binding to ligand after Conjugating with S48 [fold]
IL-10 Phe15Cys-R4-8 (ligand, human, UniProt P22301 19-178, looked up, R4-8 on Cys 15, mature) SPGQGTQSENSCTHCPGNLPNMLRDLRDAFSRVKTFFQMKDQLDNLLLKESLLEDFKGYLGCQALSEMIQFYLEEVMPQAENQDPDIKAHVNSLGENLKTLRLRLRRCHRFLPCENKSKAVEQVKNAFNKLQEKGIYKAMSEFDIFINYIEAYMTMKIRN	90	–
IL-10 Arg106Cys-S48 (ligand, human, UniProt P22301 19-178, looked up, S48 on Cys 106, mature) SPGQGTQSENSCTHFPGNLPNMLRDLRDAFSRVKTFFQMKDQLDNLLLKESLLEDFKGYLGCQALSEMIQFYLEEVMPQAENQDPDIKAHVNSLGENLKTLRLRLCRCHRFLPCENKSKAVEQVKNAFNKLQEKGIYKAMSEFDIFINYIEAYMTMKIRN	–	3
IL-10 Ala29Cys-S48 (ligand, human, UniProt P22301 19-178, looked up, S48 on Cys 29, mature) SPGQGTQSENSCTHFPGNLPNMLRDLRDCFSRVKTFFQMKDQLDNLLLKESLLEDFKGYLGCQALSEMIQFYLEEVMPQAENQDPDIKAHVNSLGENLKTLRLRLRRCHRFLPCENKSKAVEQVKNAFNKLQEKGIYKAMSEFDIFINYIEAYMTMKIRN	–	3
IL-10 Asn126Cys-R4-18 (ligand, human, UniProt P22301 19-178, looked up, R4-18 on Cys 126, mature) SPGQGTQSENSCTHFPGNLPNMLRDLRDAFSRVKTFFQMKDQLDNLLLKESLLEDFKGYLGCQALSEMIQFYLEEVMPQAENQDPDIKAHVNSLGENLKTLRLRLRRCHRFLPCENKSKAVEQVKCAFNKLQEKGIYKAMSEFDIFINYIEAYMTMKIRN	99	–
IL-10 Arg102Cys-S48 (ligand, human, UniProt P22301 19-178, looked up, S48 on Cys 102, mature) SPGQGTQSENSCTHFPGNLPNMLRDLRDAFSRVKTFFQMKDQLDNLLLKESLLEDFKGYLGCQALSEMIQFYLEEVMPQAENQDPDIKAHVNSLGENLKTLCLRLRRCHRFLPCENKSKAVEQVKNAFNKLQEKGIYKAMSEFDIFINYIEAYMTMKIRN	–	3
IL-10 Asn92Cys-R4-18 (ligand, human, UniProt P22301 19-178, looked up, R4-18 on Cys 92, mature) SPGQGTQSENSCTHFPGNLPNMLRDLRDAFSRVKTFFQMKDQLDNLLLKESLLEDFKGYLGCQALSEMIQFYLEEVMPQAENQDPDIKAHVCSLGENLKTLRLRLRRCHRFLPCENKSKAVEQVKNAFNKLQEKGIYKAMSEFDIFINYIEAYMTMKIRN	86.4	–
IL-10 Asp86Cys-S48 (ligand, human, UniProt P22301 19-178, looked up, S48 on Cys 86, mature) SPGQGTQSENSCTHFPGNLPNMLRDLRDAFSRVKTFFQMKDQLDNLLLKESLLEDFKGYLGCQALSEMIQFYLEEVMPQAENQDPCIKAHVNSLGENLKTLRLRLRRCHRFLPCENKSKAVEQVKNAFNKLQEKGIYKAMSEFDIFINYIEAYMTMKIRN	–	3
IL-10 Gln123Cys-R4-19 (ligand, human, UniProt P22301 19-178, looked up, R4-19 on Cys 123, mature) SPGQGTQSENSCTHFPGNLPNMLRDLRDAFSRVKTFFQMKDQLDNLLLKESLLEDFKGYLGCQALSEMIQFYLEEVMPQAENQDPDIKAHVNSLGENLKTLRLRLRRCHRFLPCENKSKAVECVKNAFNKLQEKGIYKAMSEFDIFINYIEAYMTMKIRN	96.5	–
IL-10 Ala29Cys-R4-5 (ligand, human, UniProt P22301 19-178, looked up, R4-5 on Cys 29, mature) SPGQGTQSENSCTHFPGNLPNMLRDLRDCFSRVKTFFQMKDQLDNLLLKESLLEDFKGYLGCQALSEMIQFYLEEVMPQAENQDPDIKAHVNSLGENLKTLRLRLRRCHRFLPCENKSKAVEQVKNAFNKLQEKGIYKAMSEFDIFINYIEAYMTMKIRN	78	–
IL-10 Arg102Cys-R4-20 (ligand, human, UniProt P22301 19-178, looked up, R4-20 on Cys 102, mature) SPGQGTQSENSCTHFPGNLPNMLRDLRDAFSRVKTFFQMKDQLDNLLLKESLLEDFKGYLGCQALSEMIQFYLEEVMPQAENQDPDIKAHVNSLGENLKTLCLRLRRCHRFLPCENKSKAVEQVKNAFNKLQEKGIYKAMSEFDIFINYIEAYMTMKIRN	99	–
IL-10 Asn92Cys-S48 (ligand, human, UniProt P22301 19-178, looked up, S48 on Cys 92, mature) SPGQGTQSENSCTHFPGNLPNMLRDLRDAFSRVKTFFQMKDQLDNLLLKESLLEDFKGYLGCQALSEMIQFYLEEVMPQAENQDPDIKAHVCSLGENLKTLRLRLRRCHRFLPCENKSKAVEQVKNAFNKLQEKGIYKAMSEFDIFINYIEAYMTMKIRN	–	3
IL-10 Asp86Cys-R4-11 (ligand, human, UniProt P22301 19-178, looked up, R4-11 on Cys 86, mature) SPGQGTQSENSCTHFPGNLPNMLRDLRDAFSRVKTFFQMKDQLDNLLLKESLLEDFKGYLGCQALSEMIQFYLEEVMPQAENQDPCIKAHVNSLGENLKTLRLRLRRCHRFLPCENKSKAVEQVKNAFNKLQEKGIYKAMSEFDIFINYIEAYMTMKIRN	81	–
IL-10 Asn126Cys-S48 (ligand, human, UniProt P22301 19-178, looked up, S48 on Cys 126, mature) SPGQGTQSENSCTHFPGNLPNMLRDLRDAFSRVKTFFQMKDQLDNLLLKESLLEDFKGYLGCQALSEMIQFYLEEVMPQAENQDPDIKAHVNSLGENLKTLRLRLRRCHRFLPCENKSKAVEQVKCAFNKLQEKGIYKAMSEFDIFINYIEAYMTMKIRN	–	3
IL-10 Arg106Cys-R4-7 (ligand, human, UniProt P22301 19-178, looked up, R4-7 on Cys 106, mature) SPGQGTQSENSCTHFPGNLPNMLRDLRDAFSRVKTFFQMKDQLDNLLLKESLLEDFKGYLGCQALSEMIQFYLEEVMPQAENQDPDIKAHVNSLGENLKTLRLRLCRCHRFLPCENKSKAVEQVKNAFNKLQEKGIYKAMSEFDIFINYIEAYMTMKIRN	99.6	–
IL-10 Ala89Cys-R4-1 (ligand, human, UniProt P22301 19-178, looked up, R4-1 on Cys 89, mature) SPGQGTQSENSCTHFPGNLPNMLRDLRDAFSRVKTFFQMKDQLDNLLLKESLLEDFKGYLGCQALSEMIQFYLEEVMPQAENQDPDIKCHVNSLGENLKTLRLRLRRCHRFLPCENKSKAVEQVKNAFNKLQEKGIYKAMSEFDIFINYIEAYMTMKIRN	78.7	–
IL-10 Asp25Cys-R4-11 (ligand, human, UniProt P22301 19-178, looked up, R4-11 on Cys 25, mature) SPGQGTQSENSCTHFPGNLPNMLRCLRDAFSRVKTFFQMKDQLDNLLLKESLLEDFKGYLGCQALSEMIQFYLEEVMPQAENQDPDIKAHVNSLGENLKTLRLRLRRCHRFLPCENKSKAVEQVKNAFNKLQEKGIYKAMSEFDIFINYIEAYMTMKIRN	91.5	–
IL-10 Ala89Cys-S48 (ligand, human, UniProt P22301 19-178, looked up, S48 on Cys 89, mature) SPGQGTQSENSCTHFPGNLPNMLRDLRDAFSRVKTFFQMKDQLDNLLLKESLLEDFKGYLGCQALSEMIQFYLEEVMPQAENQDPDIKCHVNSLGENLKTLRLRLRRCHRFLPCENKSKAVEQVKNAFNKLQEKGIYKAMSEFDIFINYIEAYMTMKIRN	–	5

target: T2, IL-10R1-Fc; assay: ELISA, IL-10R1-Fc coated

Binder	Binding recovery (>60%) [%]	Decreased fold of binding to ligand after Conjugating with S48 [fold]
IL-10 Tyr137Cys-R4-4 (ligand, human, UniProt P22301 19-178, looked up, R4-4 on Cys 137, mature) SPGQGTQSENSCTHFPGNLPNMLRDLRDAFSRVKTFFQMKDQLDNLLLKESLLEDFKGYLGCQALSEMIQFYLEEVMPQAENQDPDIKAHVNSLGENLKTLRLRLRRCHRFLPCENKSKAVEQVKNAFNKLQEKGICKAMSEFDIFINYIEAYMTMKIRN	99.1	–
IL-10 Thr6Cys-S48 (ligand, human, UniProt P22301 19-178, looked up, S48 on Cys 6, mature) SPGQGCQSENSCTHFPGNLPNMLRDLRDAFSRVKTFFQMKDQLDNLLLKESLLEDFKGYLGCQALSEMIQFYLEEVMPQAENQDPDIKAHVNSLGENLKTLRLRLRRCHRFLPCENKSKAVEQVKNAFNKLQEKGIYKAMSEFDIFINYIEAYMTMKIRN	–	3
IL-10 Val91Cys-S48 (ligand, human, UniProt P22301 19-178, looked up, S48 on Cys 91, mature) SPGQGTQSENSCTHFPGNLPNMLRDLRDAFSRVKTFFQMKDQLDNLLLKESLLEDFKGYLGCQALSEMIQFYLEEVMPQAENQDPDIKAHCNSLGENLKTLRLRLRRCHRFLPCENKSKAVEQVKNAFNKLQEKGIYKAMSEFDIFINYIEAYMTMKIRN	–	3
IL-10 Tyr137Cys-S48 (ligand, human, UniProt P22301 19-178, looked up, S48 on Cys 137, mature) SPGQGTQSENSCTHFPGNLPNMLRDLRDAFSRVKTFFQMKDQLDNLLLKESLLEDFKGYLGCQALSEMIQFYLEEVMPQAENQDPDIKAHVNSLGENLKTLRLRLRRCHRFLPCENKSKAVEQVKNAFNKLQEKGICKAMSEFDIFINYIEAYMTMKIRN	–	5
IL-10 Tyr149Cys-S48 (ligand, human, UniProt P22301 19-178, looked up, S48 on Cys 149, mature) SPGQGTQSENSCTHFPGNLPNMLRDLRDAFSRVKTFFQMKDQLDNLLLKESLLEDFKGYLGCQALSEMIQFYLEEVMPQAENQDPDIKAHVNSLGENLKTLRLRLRRCHRFLPCENKSKAVEQVKNAFNKLQEKGIYKAMSEFDIFINCIEAYMTMKIRN	–	5
IL-10 Tyr149Cys-R4-4 (ligand, human, UniProt P22301 19-178, looked up, R4-4 on Cys 149, mature) SPGQGTQSENSCTHFPGNLPNMLRDLRDAFSRVKTFFQMKDQLDNLLLKESLLEDFKGYLGCQALSEMIQFYLEEVMPQAENQDPDIKAHVNSLGENLKTLRLRLRRCHRFLPCENKSKAVEQVKNAFNKLQEKGIYKAMSEFDIFINCIEAYMTMKIRN	115	–
IL-10 Val91Cys-R4-5 (ligand, human, UniProt P22301 19-178, looked up, R4-5 on Cys 91, mature) SPGQGTQSENSCTHFPGNLPNMLRDLRDAFSRVKTFFQMKDQLDNLLLKESLLEDFKGYLGCQALSEMIQFYLEEVMPQAENQDPDIKAHCNSLGENLKTLRLRLRRCHRFLPCENKSKAVEQVKNAFNKLQEKGIYKAMSEFDIFINYIEAYMTMKIRN	97.2	–
